Test results from US20220332764A1, “T CELL EPITOPES OF HCMV AND USES OF THEREOF” (EBERHARD KARLS UNIVERSITÄT TÜBINGEN, priority 2019, published 2022).

What was measured:
Assay in all cases: cell-based or functional assay
HLA-B*51:01 (human) = target: HLA-B*51:01 (human)
HLA-B*08:01 (human) = target: HLA-B*08:01 (human)
HLA-B*07:02 (human) = target: HLA-B*07:02 (human)

% Positive donors (after 12 days of stimulation), IFNγ ELISpot (HLA-B*51:01 (human))	% Positive donors (after 12 days of stimulation), IFNγ ELISpot (HLA-B*08:01 (human))	% Positive donors (after 12 days of stimulation), IFNγ ELISpot (HLA-B*07:02 (human))	Binder
62.5%	68.8%	–	LPYPRGYTL (modifications not checked) [UL26 61-69 …]
–	90.9%	25%	LPHERHREL (modifications not checked) [UL34 180-188 …]
